Patent US20090074756A1 (published 2009)

Experiments:
human CD161 (NKR-P1A) = target: T1, human CD161 (NKR-P1A) (human, UniProt Q12918 1-225); assay: flow cytometry, LLT1-Fc multimer on CD161-transfected HEK293T cells
T1 construct: Native on polyclonal human NK and T cells in the staining and functional assays; The background calls CD161 a disulfide-bond homodimer; also called CD161 receptor; CD161-pIRES2-EGFP transfected HEK293T cells
T1 sequence: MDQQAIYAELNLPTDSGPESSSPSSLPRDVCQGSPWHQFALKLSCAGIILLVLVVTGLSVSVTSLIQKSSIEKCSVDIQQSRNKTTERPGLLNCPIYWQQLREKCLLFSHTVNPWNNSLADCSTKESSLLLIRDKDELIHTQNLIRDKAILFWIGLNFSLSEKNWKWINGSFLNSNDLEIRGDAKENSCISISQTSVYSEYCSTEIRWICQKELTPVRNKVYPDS
Procedure: (§1) Flow cytometry using the LLT1-Fc-ProteinA-biotin-Streptavidin-APC multimer (LLT1-multimer) was performed to identify the receptor of LLT1.

[1] = target: T2, human LLT1 (Lectin-like transcript 1), full length (human, UniProt Q9UHP7 1-191); assay: flow cytometry, LLT1 multimer on LLT1-transfected HEK293T cells
T2 construct: Expressed on transfected HEK293T, Hela, C1R and P815 cells; The background says LLT1 is a homodimer on the cell surface; also called LLT1-pIRES2-EGFP transfected HEK293T cells
T2 sequence: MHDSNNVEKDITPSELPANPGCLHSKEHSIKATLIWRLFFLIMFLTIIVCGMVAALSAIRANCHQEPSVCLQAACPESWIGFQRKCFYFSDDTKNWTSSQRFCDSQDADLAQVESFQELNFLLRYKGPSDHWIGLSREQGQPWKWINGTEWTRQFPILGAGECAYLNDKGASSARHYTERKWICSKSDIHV
Procedure: as §1

B1: LLT1-Fc-ProteinA-biotin-Streptavidin-APC multimer (Fc fusion)
chain: RANCHQEPSVCLQAACPESWIGFQRKCFYFSDDTKNWTSSQRFCDSQDADLAQVESFQELNFLLRYKGPSDHWIGLSREQGQPWKWINGTEWTRQFPILGAGECAYLNDKGASSARHYTERKWICSKSDIHV
notes: also called LLT1-multimer; LLT1 multimer; not shown: Fc portion of human IgG1
binding result (human CD161 (NKR-P1A)): binds | binding result [1]: no binding
